From the supplement of paper PMC9170038

Test system: K4 kissing-loop RNA reporter
Test: apparent KD of K4 kissing-loop reporter; higher = weaker reporter binding
Conditions: Eterna round: R107
Description: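 RNA-MaP round R107: designed RNA switches with theophylline, tryptophan, arginine or FMN aptamers are transcribed on-chip within common flanks. They are titrated with a labelled K4 kissing-loop RNA reporter in RNA-MaP buffer (100 mM Tris pH 7.5, 80 mM KCl, 4 mM MgCl2), without ligand or with the indicated ligand. Median apparent KD per design.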

[1] = input ligand: theophylline 20 uM
[2] = input ligand: tryptophan 2.4 mM
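Note: bound reporter read as fluorescence of individual clusters on recovered sequencing chips by microscopy, with normalized cluster intensities fitted with a binding model.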

Row | Sequence | apparent KD of K4 kissing-loop reporter (input ligand: FMN 200 uM) | apparent KD of K4 kissing-loop reporter (input ligand: arginine 13.2 mM) | apparent KD of K4 kissing-loop reporter (input ligand: none) | apparent KD of K4 kissing-loop reporter [1] | apparent KD of K4 kissing-loop reporter [2]
1 | CUUGUACAUGCCGAGGUAGGUGCGGGUUAGCGAGGACCGGUACGGCCGCCACUCGCCAAGUGAUGUUUGGUCCUUUGGGUCGGCA | 948 nM | 507 nM | 562 nM | 663 nM | 633 nM
2 | CUUUAUCAACCAGAUACCAGCGGUUCUCUAGUUGGCUUCCGUAGUGAUGUUGCGUGGUCCCGCCCUUGGCAGCUGGCCAUGACUA [theeternabot_sameState_KL_Theo_B_5] | 1060 nM | 684 nM | 1170 nM | 798 nM | 993 nM
3 | GAACGGCGGGCGGCCGCCACUGGUAUACGAGUGAUGUUCGGAUAUACGUGAUGUAAGGUAAUUAACAGGACCGGGUCAGGGCCGG [whbob_SS_Tryp_B_t20] | 278 nM | 208 nM | 239 nM | 294 nM | 238 nM
4 | GAAUUAUGUAGAAGGAGCGUUAGAAGGUAUAGGUGCGAGUGAUGUUUGGACUUGUUAAUUUGACAGGUAGGUCGCUACAGAAGGA [KL-SSArg B19 #analogue] | 496 nM | 281 nM | 499 nM | 379 nM | 451 nM
5 | GAAUUAUGUAGAAGGAGCGUUAGAAGGUAUAGGUGUGAGUGAUGUUCGGAUUUGUUAAUUUGACAGGUAGGUCGCUACAGAAGGA [KL-SSArg B17 #analogue] | 435 nM | 267 nM | 242 nM | 132 nM | 106 nM
6 | GACAUACCUAUGGAGGGCCGAUCGAUCAUACGAGGACCGGUACGGCCGCCACUCGUGGGCAGUGAUGUUGACCCUGGGAGGUAAG | 316 nM | 223 nM | 252 nM | 232 nM | 483 nM
7 | GACUCAUGUAGAAGGAGCGUCAGAAGCUACAGACAUGAGUGAUGUUCAUGUUAGUUGAUCUGACAGGUAGGUCGCUACAGCAGGA [KL-SSArg B14 #analogue] | 145 nM | 121 nM | 149 nM | 141 nM | 150 nM
8 | GAGAGCUCUGGAGGAUAUGAGUCUAGUGAUGUUAGGCGGUCCAUGCGCGUGGCGCGUUAUGCCCUUUUAGAAGGCCAGAGCUCUC [#2 Exclusion - FMN B Attempt #19 (HarryS)] | 98.3 nM | 69.3 nM | 99.8 nM | 113 nM | 85 nM
9 | GAGAUAGAGGCGGCCGCCACUAGUGAUGUUGGUGAUGUUAGAUAGAGAAUAGAACGGGUACUCCCUAGGACCGGGCCAGAUGGAG [#04 K4 Tryptophan B Exclusion] | 63.8 nM | 34.9 nM | 58.5 nM | 49.4 nM | 53 nM
10 | GAGCGGUGGAGGUUACCGCUAUUCUGAGAAGGAGCGCAGAUGACUGCAGGUAGGUCGCUUAGAGCUUGCAGUGAUGUUGCAAGUU [Edrirama] | 197 nM | 177 nM | 213 nM | 193 nM | 213 nM
11 | GAGGGCUCGGGAGGAUAUGAGUCUAGUGAUGUUAGGCGGUCCAUGCGCGUGGCGCGUUAUGCCCUUUUAGAAGGCCCGAGCCCGC [#2 Exclusion - FMN B Attempt #23 (HarryS)] | 109 nM | 76.4 nM | 90.5 nM | 83.3 nM | 93.8 nM
12 | GAUAUAGUGAUGUUAUAUAAGAAGGAGUUACGAGGACCGGUACGGCCGCCACUCGAAACGAGUGAUGAUUUGGGAGAUUGGGUUG [SSTryptA.O] | 380 nM | 330 nM | 350 nM | 339 nM | 265 nM
13 | GAUAUAGUGAUGUUAUAUAGGAAGGAGUUACGAGGACCGGUACGGCCGCCACUCGAAACGAGUGAUGAUUUGGGAGAUUGGGUUG [SSTryptA.P] | 364 nM | 359 nM | 395 nM | 430 nM | 332 nM
14 | GAUCUGAACGAAAGUUCGGAUCAGUCCGAUACCAGUAUGGAUUCAUACCCUUGGCAGCGGAAAUCUGCUAUGGAGUGAUGUUCCU [Theophylline A K4 13] | 362 nM | 280 nM | 413 nM | 396 nM | 274 nM
15 | GAUUGUGAUGGAAACAUCGCAAUCUCUGAAGGAGCGCGUGAAAACGCAGGUAGGUCGCAGGACGACUAUGACAGUGAUGUUGUCG [Ex Arginine A K4 3] | 189 nM | 216 nM | 190 nM | 207 nM | 189 nM
16 | GAUUUAGAGGCGGCCGCCACUAGUGAUGUUAGUGAUGUUUGAUACGGAAUAUAUCUGCGAGUAGAUAGGACCGGGCCAGAUGGAG [rttrbmullin] | 207 nM | 150 nM | 170 nM | 184 nM | 181 nM
17 | GCAACUCUCAGUGAUGUUGAGUUAUCGGAAGGAGCGCGUGAAAACGCAGGUAGGUCGCCGAUACAAUGAGUUUCUCGUUGGUUGC [Arginine A K4 21] | 769 nM | 489 nM | 664 nM | 554 nM | 569 nM
18 | GCAAUUCUCAGUGAUGUUGAGUAAUCGGAAGGAGCGCGUGAAAACGCAGGUAGGUCGCCGAAACAUGAAGUAUCUUCGUGUUUGC [Arginine A K4 24] | 180 nM | 190 nM | 215 nM | 226 nM | 168 nM
19 | GCAGGACGAGGAGGAGGAUGAAUUACUGAAGGAGCGCAUAUGGUUGCAGGUAGGUCGCGGUAAACAAGUAUAGUGAUGUUAUAUC [SSArgA.P] | 913 nM | 586 nM | 552 nM | 621 nM | 584 nM
20 | GCAGGACGAGGAGGAGGAUGAAUUACUGAAGGAGCGCAUAUUUUUGCAGGUAGGUCGCGGUAAACAAGUAUAGUGAUGUUAUAUA [SSArgA.M] | 415 nM | 464 nM | 446 nM | 514 nM | 264 nM
21 | GCCAGGCAUCUGCAGAGUGAUGUUCAAAAGCGAGGACCGGUACGGCCGCCACUCGAAAGCAGAUGCCUGGGCGUACAAAGUACGC [idea] | 1140 nM | 262 nM | 984 nM | 562 nM | 899 nM
22 | GCCGAAUCGUUGGGCUCAGUGAUGUUGAUCCGAGGACCGGUACGGCCGCCACUCGAAUGGCAGUGACCACACUGGUAACGUUAAA [theeternabot_exclusion_KL_Trp_A_43] | 573 nM | 490 nM | 699 nM | 575 nM | 261 nM

Row | Sequence | apparent KD of K4 kissing-loop reporter (input ligand: FMN 200 uM) | apparent KD of K4 kissing-loop reporter (input ligand: arginine 13.2 mM) | apparent KD of K4 kissing-loop reporter (input ligand: none) | apparent KD of K4 kissing-loop reporter [1] | apparent KD of K4 kissing-loop reporter [2]
23 | GCCGUACGCAUGGAUACCAGAGAUGUUAGUCUCGAUGCCAGUGAUGUUGGCUAUAGCAUACUCCCUUGGCAGCCAUGCGUACGGC | 132 nM | 113 nM | 128 nM | 113 nM | 107 nM
24 | GCCGUACGCAUGGAUACCAGCAAUUAUGCUCGUGAUCUAGUGAUGUUAGUGGCGAAAGUUUGCCCUUGGCAGCCAUGCGUACGGC | 224 nM | 172 nM | 244 nM | 134 nM | 182 nM
25 | GCCGUACGCAUGGAUACCAGCGUACGUCACCUAGCAGUGAUGUUGCUAUUGCCACGUAAACGCCCUUGGCAGCCAUGCGUACGGC | 495 nM | 448 nM | 478 nM | 181 nM | 445 nM
26 | GCCGUAGAUGGAAGGAGCGAGGUAGACUGUUGAAGUGAUGUUUCAACUCAUUAAGCCCAACCUCAGGUAGGUCGCCAUCUACGGC | 133 nM | 110 nM | 115 nM | 118 nM | 115 nM
27 | GCCGUAGAUGGAAGGAGCGUGUCAAAGUGAUGUUUUGAUUAACUCCCUAAGGGAUAGAUGACACAGGUAGGUCGCCAUCUACGGC | 74.5 nM | 63.5 nM | 74.3 nM | 102 nM | 63.3 nM
28 | GCCGUAGAUGGAAGGAGCGUGUCCAAACCUCAUUCAUGUACACACGAGUGAUGUUCGUGUACACAGGUAGGUCGCCAUCUACGGC | 413 nM | 314 nM | 374 nM | 410 nM | 363 nM
29 | GCCGUAGAUUGAAGGAGCGAGGCUACUUAAAGACCGAGUGAUGUUCGGGAACGUGAAACUCCUCAGGUAGGUCGCAAUCUACGGC | 284 nM | 235 nM | 280 nM | 227 nM | 267 nM
30 | GCCGUAGAUUGAAGGAGCGCCUUCUUACCAAGAGUGAUGUUCUUUGGUACCAUGUUCAGUAGGCAGGUAGGUCGCAAUCUACGGC | 292 nM | 258 nM | 332 nM | 387 nM | 390 nM
31 | GCCUACGCUGCAGGAUAUAGUUACAGCGACUUAGCCGUUGUAUGUCCAUGGUUCAGUGAUGUUGAACUAGAAGGGCAGCGUAGGC [#02 K4 FMN B Exclusion] | 285 nM | 127 nM | 132 nM | 134 nM | 154 nM
32 | GCGAGUUUGCAAGGAUAUCGACCGUCGUACGACCAGUGAUGUUGGGAGUACUUUCAAAAUCGAUUUCGAGAAGGUGCUGGCAUCA [theeternabot_sameState_KL_FMN_B_12] | 271 nM | 212 nM | 250 nM | 248 nM | 234 nM
33 | GCGAUCUGCAUCGAUACCAGCCCAGUGAUGUUGGGCUGCUCUCCAUGGGUGCCAGACACGGGCCCUUGGCAGCGAGGUAGAGCCC [Maonzaa] | 129 nM | 118 nM | 109 nM | 112 nM | 115 nM
34 | GCGCGGGAGUGAUGUUCCAAGUGGUGUUAGCGAGGACCGGUACGGCCGCCACUCGUUACGGCCGGGCCGUAGGAUACACUGGCGC [Same State - Tryptophan A (Freestyle 17)] | 308 nM | 218 nM | 286 nM | 290 nM | 240 nM
35 | GCGCGUCAUGUCAGCGGUGACACUGUCGAUACCAGCGCCGCAAGGCGCCCUUGGCAGCGACGUGCUGGAGUGAUGUUCCAGCGUC [#2 Exclusion - Theophylline A Attempt #22 (HarryS)] | 159 nM | 113 nM | 145 nM | 142 nM | 140 nM
36 | GCGCGUCAUGUCAGCGGUGACUACGUCGAUACCAGCAGGGAAACCUGCCCUUGGCAGCGACGCGCUGGAGUGAUGUUCCGACGGA [#2 Exclusion - Theophylline A Attempt #6 (HarryS)] | 434 nM | 431 nM | 544 nM | 854 nM | 442 nM
37 | GCGCGUCAUGUCGGCGGUGACUACGCCGAUACCAGCCGGGAAACCGGCCCUUGGCAGCGGCGCGCCGGAGUGAUGUUCCGACAGA [#2 Exclusion - Theophylline A Attempt #3 (HarryS)] | 126 nM | 205 nM | 190 nM | 359 nM | 109 nM
38 | GCGGGCCCUGGAGGAUAUGAGUCGAGUGAUGUUCGGCGGUCCAUGCCGAUGCGGCGUUAUGCCCUUUUAGAAGGCCAGGGCCCGC [#2 Exclusion - FMN B Attempt #7 (HarryS)] | 392 nM | 236 nM | 310 nM | 243 nM | 277 nM
39 | GCGUCAUCGAAAGGAUAUGGAGUAGUGAUGUUGAUCCAUAUGCUCACGCAUAGCCGAGAACAUCGACCAGAAGGUUCAAGAACUG [theeternabot_exclusion_KL_FMN_B_41] | 672 nM | 509 nM | 757 nM | 520 nM | 459 nM
40 | GCUAAGGAGUGAUGUUCCAAGUGAUGUUAACGAGGACCGGUACGGCCGCCACUCGAUACGGCCGGACCGUAAGAUAAACUACAGC [Same State - Tryptophan A (Freestyle 6)] | 206 nM | 182 nM | 213 nM | 279 nM | 194 nM
41 | GCUAUGGUAGGAAGGAGCGCUUAUUCAUUAAUAAGAGUGAUGUUCGAUAAUGAAUAUUUAUAGCAGGUAGGUCGCCUACUAUAGC [Arginine B K4 2] | 300 nM | 223 nM | 230 nM | 206 nM | 237 nM
42 | GCUAUGGUAGGAAGGAGCGCUUAUUUAUUUUUAAGAGUGAUGUUCGUUAGUAGAUAGUUAAAGCAGGUAGGUCGCCUACUAUAGC [Arginine B K4 15] | 146 nM | 177 nM | 171 nM | 161 nM | 100 nM
43 | GCUAUGGUAGGAAGGAGCGCUUGUUCGGUCAUAUGAGUGAUGUUCGAGACUGAGCAUUUAUAGCAGGUAGGUCGCCUACUAUAGC [Arginine B K4 10] | 164 nM | 179 nM | 181 nM | 160 nM | 175 nM
